Test results published in publication PMC13022675.

Target: GFP-tagged MR1A (MR1-GFP) expressed in clonal cell line D6 (D6ins and D6del mutants) (UniProt Q95460)
Sequence of UniProt Q95460 (Q95460 23-341, stated change not applied): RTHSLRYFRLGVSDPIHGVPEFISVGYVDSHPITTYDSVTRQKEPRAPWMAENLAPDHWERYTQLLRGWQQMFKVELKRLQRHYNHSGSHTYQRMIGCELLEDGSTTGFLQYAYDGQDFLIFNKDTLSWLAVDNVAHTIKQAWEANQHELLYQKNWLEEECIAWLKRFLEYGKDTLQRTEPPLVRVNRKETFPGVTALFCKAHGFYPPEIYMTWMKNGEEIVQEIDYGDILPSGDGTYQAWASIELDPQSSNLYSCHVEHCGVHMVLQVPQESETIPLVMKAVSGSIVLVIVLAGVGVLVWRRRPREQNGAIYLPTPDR

## β2-microglobulin (from UniProt P61769 21-119) (natural protein)
  fully folded MR1 (antibody clone 26.5) remaining at the cell surface 6 h after brefeldin A, flow cytometry: 20%
